Measurements from publication PMC11784390, “Conformational changes in and translocation of small proteins: insights into the ejection mechanism of podophages” (Journal of Virology, 2024).

Tests used:
portal protein gp8 = molecular target: T1, portal protein gp8 (bacteriophage T7, UniProt P03728 1-536); experiment: cryo-EM structure; DNA-ejected T7: purified mature T7 incubated with rough LPS (250 µg/mL) at 37°C for 3 h; entire particle asymmetric 8.2 Å; portal–tail complex 3.5 Å (six-fold); details: both partners purified
T1 construct: portal protein gp8 of bacteriophage T7, as it stands in the virion; Native virion protein; also called dodecameric portal; source: T7 virions propagated in E. coli, purified (PEG precipitation, CsCl ultracentrifugation); copies: 12
T1 sequence (looked up): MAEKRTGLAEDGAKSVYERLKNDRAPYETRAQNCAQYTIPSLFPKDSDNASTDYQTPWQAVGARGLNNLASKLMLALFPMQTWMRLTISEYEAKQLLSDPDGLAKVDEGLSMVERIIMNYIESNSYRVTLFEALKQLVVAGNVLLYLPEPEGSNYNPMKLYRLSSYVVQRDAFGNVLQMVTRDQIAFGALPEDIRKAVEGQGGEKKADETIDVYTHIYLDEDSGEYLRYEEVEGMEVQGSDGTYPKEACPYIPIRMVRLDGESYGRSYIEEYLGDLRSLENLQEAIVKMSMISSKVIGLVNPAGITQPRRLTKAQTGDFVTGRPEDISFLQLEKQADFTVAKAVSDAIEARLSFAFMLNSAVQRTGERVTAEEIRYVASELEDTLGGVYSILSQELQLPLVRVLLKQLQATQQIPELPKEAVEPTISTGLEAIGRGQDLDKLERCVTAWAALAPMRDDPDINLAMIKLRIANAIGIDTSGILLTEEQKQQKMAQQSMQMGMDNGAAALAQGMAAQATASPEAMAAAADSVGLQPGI

nozzle protein gp12 = molecular target: T2, nozzle protein gp12 (bacteriophage T7, UniProt P03747 1-794); experiment: as above; details: both partners purified
T2 construct: nozzle protein gp12 of bacteriophage T7, as it stands in the virion; Native virion protein; also called tail nozzle; source: T7 virions propagated in E. coli, purified (PEG precipitation, CsCl ultracentrifugation)
T2 sequence (looked up): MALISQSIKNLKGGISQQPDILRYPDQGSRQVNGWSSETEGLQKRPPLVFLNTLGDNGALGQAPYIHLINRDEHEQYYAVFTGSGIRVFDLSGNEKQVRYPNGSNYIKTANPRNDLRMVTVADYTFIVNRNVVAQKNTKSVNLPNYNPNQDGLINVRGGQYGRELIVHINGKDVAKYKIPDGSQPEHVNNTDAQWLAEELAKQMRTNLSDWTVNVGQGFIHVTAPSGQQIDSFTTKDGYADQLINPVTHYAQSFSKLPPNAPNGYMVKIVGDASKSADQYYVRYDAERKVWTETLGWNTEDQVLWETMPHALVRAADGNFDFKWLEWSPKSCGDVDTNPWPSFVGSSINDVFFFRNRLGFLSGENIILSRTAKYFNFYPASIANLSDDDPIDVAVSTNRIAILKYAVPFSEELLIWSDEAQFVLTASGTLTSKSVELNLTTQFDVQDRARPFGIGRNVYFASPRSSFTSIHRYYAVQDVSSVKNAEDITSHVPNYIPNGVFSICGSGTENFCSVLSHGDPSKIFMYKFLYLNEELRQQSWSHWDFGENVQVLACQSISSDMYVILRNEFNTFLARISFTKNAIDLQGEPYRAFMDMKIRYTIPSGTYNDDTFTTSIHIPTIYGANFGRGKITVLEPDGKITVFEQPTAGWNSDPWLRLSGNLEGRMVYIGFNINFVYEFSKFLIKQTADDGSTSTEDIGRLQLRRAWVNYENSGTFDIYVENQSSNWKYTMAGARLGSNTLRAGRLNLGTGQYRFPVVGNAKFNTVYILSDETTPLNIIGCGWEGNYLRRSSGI

[1] = molecular target: the molecule itself; experiment: cryo-EM structure; mature T7 virions, in situ; entire particle asymmetric 6.1 Å; local reconstructions of core complex 3 Å (four-fold), portal 2.5 Å (twelve-fold), portal–tail complex 2.7 Å (six-fold)
core protein gp16 = molecular target: T3, core protein gp16 (bacteriophage T7, UniProt P03726 1-1318); experiment: as above; details: both partners purified
T3 construct: core protein gp16 of bacteriophage T7, as it stands in the mature virion; Four-fold ring in the core of mature T7; source: T7 virions propagated in E. coli, purified (PEG precipitation, CsCl ultracentrifugation)
T3 sequence (looked up): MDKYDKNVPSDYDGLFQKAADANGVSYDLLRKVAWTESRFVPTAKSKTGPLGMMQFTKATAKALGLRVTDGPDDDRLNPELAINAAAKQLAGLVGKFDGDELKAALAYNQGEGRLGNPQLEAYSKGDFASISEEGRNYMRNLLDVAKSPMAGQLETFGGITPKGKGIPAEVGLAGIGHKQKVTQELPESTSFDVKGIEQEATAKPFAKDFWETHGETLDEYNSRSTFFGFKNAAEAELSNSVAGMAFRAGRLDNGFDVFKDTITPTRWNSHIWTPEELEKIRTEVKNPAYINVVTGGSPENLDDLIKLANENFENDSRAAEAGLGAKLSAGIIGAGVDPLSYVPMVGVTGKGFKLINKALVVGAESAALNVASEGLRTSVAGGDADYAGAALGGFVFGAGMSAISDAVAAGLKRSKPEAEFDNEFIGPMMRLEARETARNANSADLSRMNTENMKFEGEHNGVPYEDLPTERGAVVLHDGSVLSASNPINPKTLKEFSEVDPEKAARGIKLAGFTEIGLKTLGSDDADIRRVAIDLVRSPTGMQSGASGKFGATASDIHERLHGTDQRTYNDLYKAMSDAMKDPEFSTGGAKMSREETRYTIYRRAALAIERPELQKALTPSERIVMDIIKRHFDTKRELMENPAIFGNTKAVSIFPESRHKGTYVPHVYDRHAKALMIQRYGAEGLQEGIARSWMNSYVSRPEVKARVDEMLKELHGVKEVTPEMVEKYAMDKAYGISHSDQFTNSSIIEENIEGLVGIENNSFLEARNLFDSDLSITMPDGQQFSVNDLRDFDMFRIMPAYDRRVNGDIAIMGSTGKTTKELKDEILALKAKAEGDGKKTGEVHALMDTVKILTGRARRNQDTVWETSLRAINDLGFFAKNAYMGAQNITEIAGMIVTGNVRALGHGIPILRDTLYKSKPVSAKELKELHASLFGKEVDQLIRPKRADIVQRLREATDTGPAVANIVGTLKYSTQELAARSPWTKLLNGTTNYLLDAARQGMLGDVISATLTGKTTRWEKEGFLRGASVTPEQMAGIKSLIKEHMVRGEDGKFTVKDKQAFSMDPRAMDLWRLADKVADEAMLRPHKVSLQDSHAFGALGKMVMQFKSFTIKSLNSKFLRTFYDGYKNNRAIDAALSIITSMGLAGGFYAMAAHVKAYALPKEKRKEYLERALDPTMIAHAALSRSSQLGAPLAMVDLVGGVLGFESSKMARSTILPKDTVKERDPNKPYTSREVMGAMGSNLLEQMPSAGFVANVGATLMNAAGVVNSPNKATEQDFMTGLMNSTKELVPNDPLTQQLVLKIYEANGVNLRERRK

B1: adaptor protein gp11 (natural protein, bacteriophage T7, UniProt P03746 1-196, looked up)
chain: MRSYDMNVETAAELSAVNDILASIGEPPVSTLEGDANADAANARRILNKINRQIQSRGWTFNIEEGITLLPDVYSNLIVYSDDYLSLMSTSGQSIYVNRGGYVYDRTSQSDRFDSGITVNIIRLRDYDEMPECFRYWIVTKASRQFNNRFFGAPEVEGVLQEEEDEARRLCMEYEMDYGGYNMLDGDAFTSGLLTR
notes: adaptor protein gp11 of bacteriophage T7, as it stands in the virion; Native virion protein; source: T7 virions propagated in E. coli, purified (PEG precipitation, CsCl ultracentrifugation); copies: 12
For B1, the binding result (portal protein gp8) was “binds”, the binding result (nozzle protein gp12) was “binds” and the “stoichiometry N” value [1] was 12.

B2: core protein gp15 (natural protein, bacteriophage T7, UniProt P03725 1-747, looked up)
chain: MSKIESALQAAQPGLSRLRGGAGGMGYRAATTQAEQPRSSLLDTIGRFAKAGADMYTAKEQRARDLADERSNEIIRKLTPEQRREALNNGTLLYQDDPYAMEALRVKTGRNAAYLVDDDVMQKIKEGVFRTREEMEEYRHSRLQEGAKVYAEQFGIDPEDVDYQRGFNGDITERNISLYGAHDNFLSQQAQKGAIMNSRVELNGVLQDPDMLRRPDSADFFEKYIDNGLVTGAIPSDAQATQLISQAFSDASSRAGGADFLMRVGDKKVTLNGATTTYRELIGEEQWNALMVTAQRSQFETDAKLNEQYRLKINSALNQEDPRTAWEMLQGIKAELDKVQPDEQMTPQREWLISAQEQVQNQMNAWTKAQAKALDDSMKSMNKLDVIDKQFQKRINGEWVSTDFKDMPVNENTGEFKHSDMVNYANKKLAEIDSMDIPDGAKDAMKLKYLQADSKDGAFRTAIGTMVTDAGQEWSAAVINGKLPERTPAMDALRRIRNADPQLIAALYPDQAELFLTMDMMDKQGIDPQVILDADRLTVKRSKEQRFEDDKAFESALNASKAPEIARMPASLRESARKIYDSVKYRSGNESMAMEQMTKFLKESTYTFTGDDVDGDTVGVIPKNMMQVNSDPKSWEQGRDILEEARKGIIASNPWITNKQLTMYSQGDSIYLMDTTGQVRVRYDKELLSKVWSENQKKLEEKAREKALADVNKRAPIVAATKAREAAAKRVREKRKQTPKFIYGRKE
notes: core protein gp15 of bacteriophage T7, as it stands in the mature virion; Eight-fold ring in the core of mature T7; source: T7 virions propagated in E. coli, purified (PEG precipitation, CsCl ultracentrifugation)
For B2, the binding result (core protein gp16) was “binds” and the “stoichiometry N” value [1] was 8.
